According to patent US20020120098A1, “Enhanced stimulation of erythropoiesis” (priority 1996, published 2002):
Where two headings read alike, the source gives them in different places.

Assays:
[1] = Half-life and blood level of Epo versus HEMOLINK after single i.v. administration; format: in vivo; conditions: single i.v. 225 U/kg
Description: Another strategy for the co-administration of Epo and hemoglobin is to reduce the number of Epo administrations required during therapy. Several Epo therapies follow the regimen of three weekly injections, either intravenously or subcutaneously. Multiple low dose or single high dose injections of Epo are required due to its relatively short half-life in vivo. […] HEMOLINK™ has a longer half-life. […] Longer half-life of the cross-linked hemoglobin can therefore compensate for Epo which may decline at a much faster rate. Thus, hemoglobin co-administered with Epo could prolong the effectiveness of Epo and therefore this combination therapy can be used to reduce the required frequency of Epo administrations.

[2] = cited from earlier work
[3] = test system: total erythroid progenitors (BFU-E+CFU-E); experiment: Inhibition of succinylacetone (SA) toxicity to erythroid progenitors in CFA; format: cell-based, human; conditions: 0.5 mM SA only, no other addition
Experimental: (§1) The effect of the various additives on the inhibitory effect of succinylacetone (SA), a heme synthesis inhibitor, on erythroid progenitors was determined. Primary LDMNC were cultured in methyl cellulose as described in Example 1. Cord blood LDMN were plated in the presence of 1.0 mg/ml HAo (15.6 μM; n=12) or HEMOLINK™ (15.6 μM; n=5), 100 μM hemin (n=12), 250 μM FeCl3 (n=11) or no addition (n=12), in absence or presence of 0.5 mM SA. Cultures were maintained in a humidified chamber at 37° C., 5% CO2, and ambient oxygen tensions for 14 days.
Results are expressed as the number of total erythroid progenitors (BFU-E+CFU-E) present on plates treated with the various additives in the presence of SA relative to the number present on untreated plates (no SA or other addition). Significant differences in the presence of the respective additives compared to no addition (SA only; relative progenitor number=0.31) are as indicated: *p<0.001, **p<0.0001. Significant differences in the presence of the respective additives compared to no treatment (no SA; solid line at relative erythroid progenitor number=1.0) are as indicated: +p<0.05, ++p<0.001.

CFU-GM = experiment: Colony formation assay (CFA), cord blood LDMNC: CFU-GM colonies; format: cell-based, human
Experimental: (§2) This technique, referred to as the colony formation assay (CFA), is the most widely used biological assay to identify and enumerate erythroid progenitors present in hematopoietic tissue such as blood and bone marrow. Cell populations containing erythroid progenitors are plated in semi-solid suspensions of methyl cellulose, agar, low melting agarose or related substances in nutrient culture medium containing 1-3 U/ml Epo and 10 ng/ml IL-3 to specifically stimulate erythroid progenitors. Plates are incubated at 37° C. for 14 days during which time the erythroid progenitors form characteristic hemoglobinized (red) colonies. Two distinct but related erythroid progenitors can be distinguished based on colony size and morphology: BFU-E, the most primitive recognizable erythroid progenitor forms large multilobular colonies whereas the more mature CFU-E forms smaller spherical colonies.
(§3) Adult hemoglobin was purified according to U.S Pat. Nos. 5,439,591 and 5,545,328 to obtain HAo and HEMOLINK™ was prepared from HAo according to U.S. Pat. No. 5,532,352. Human umbilical cord blood intended for discard was collected from the umbilical vein of placentas immediately postpartum into 10 ml vacutainer tubes containing 143 USP units/ml sodium heparin. Low density mononuclear cells were separated from red blood cells by centrifugation over a 1.077 g/ml density gradient Cells removed from the plasma/density gradient interface were incubated overnight in a tissue culture flask with 10 ml cell culture medium containing 10% fetal bovine serum, and non-adherent LDMNC were further purified with an additional density gradient step. The LDMNC were then plated into colony formation assays (CFA) on the second day of isolation. In the CFA, LDMNC were plated at a density of 1×10^5 cells/ml in Iscoves modified Dulbeccos cell culture medium containing 0.8% methyl-cellulose, 30% fetal bovine serum, 1% bovine serum albumin, 0.1 mM 2-mercaptoethanol and 2 mM L-glutamine. Unless indicated otherwise, under standard CFA conditions 2 U/ml Epo and 10 ng/ml IL-3 are added to the formulation to stimulate hematopoietic progenitor growth, specifically BFU-E, CFU-E and CFU-GM.
(§4) Each condition was tested in duplicate in from 2-18 independent experiments. Cultures were maintained in a humidified incubator at 37° C., 5% CO2 and ambient oxygen tensions. The number of hematopoietic progenitors was scored between days 13-15 by counting the number and types of colonies present.
as §1
HEMOLINK™ was evaluated for its ability to protect erythroid progenitor cells from toxicity due to ganciclovir. Cord blood LDMNC were set up in CFAs in the presence and absence of 1 mg/ml HEMOLINK™ plus 0, 0.1, 1.0, 10, 50 or 100 μM ganciclovir. Conditions for the CFA were similar to those described in Examples 1-4. […] All data are expressed relative to the number of colonies of control plates without HEMOLINK™. The hematopoietic progenitors display different sensitivities to ganciclovir. CFU-E were unaffected by 1 μM ganciclovir. However, a similar inhibition of BFU-E occurs at a 50-fold lower dose of ganciclovir (1 μM). […] Due to the difficulty in scoring CFU-GM in the presence of hemoglobin precipitates, as previously noted, they could not be accurately measured under these conditions. Thus, HEMOLINK™ reduces toxicity of ganciclovir to erythroid progenitors with the most pronounced effect on BFU-E cells.

CFU-E = experiment: Colony formation assay (CFA), cord blood LDMNC: CFU-E colonies; format: cell-based, human; conditions: absence of HEMOLINK
Experimental: as §2, §3, §4
(§5) Erythroid progenitor colony formation assays were conducted as described in Example 1 except that cultures were incubated at either ambient oxygen tensions (˜20% O2) or 5% O2. The reduced oxygen tension of 5% O2 approximates the physiological intravascular oxygen tension in mammals. The mean fold increase in cord blood BFU-E, CFU-E and CFU-GM progenitor number at 5% O2 produced by 1.0 mg/ml HAo (15.6 μM; n=11) or HEMOLINK™ (15.6 μM; n=6), 100 μM hemin (n=10), 250 μM FeCl3 (n=6) or no addition (n=17-18), is shown FIG. 2. Results are expressed relative to control cells treated only with respective vehicles and cultured at ambient oxygen tensions (˜20% O2; fold expansion=1.0; *p<0.05, **p<0.01).
(§6) Erythroid progenitor colony formation assays were conducted as described in Example 1 except that cultures were initiated in the presence of Epo concentrations ranging from 0-2 U/ml. The mean fold increase in cord blood BFU-E, CFU-E and CFU-GM progenitor number produced by 1.0 mg/ml HAo (15.6 μM; n=9) or HEMOLINK™ (15.6 μM; n=6), 100 μM hemin (n=8), 250 μM FeCl3 (n=6), or no addition (n=9-10) in the presence of reduced Epo concentrations (0.2 U/ml) is shown in FIG. 3. Cultures were maintained at ambient oxygen tensions (˜20% O2) for 14 days. Results are expressed relative to control cells at 2 U/ml Epo treated only with the respective vehicles (solid line at fold expansion=1.0; *p<0.05, **p<0 01). Erythroid progenitor colonies were undetectable in the absence of Epo. […]

BFU-E = experiment: Colony formation assay (CFA), cord blood LDMNC: BFU-E colonies; format: cell-based, human; conditions: 0.1-100 μM ganciclovir, absence of HEMOLINK
Experimental: as §2, §3, §4, §5, §6

Q: Which Epo level ([1]; 0 hours post administration, assuming 85 ml/kg) does the source give for “Epo: recombinant human Epo; hormone that stimulates erythroid progenitors” here?
A: 2.7 U/ml

Q: And the Epo level ([1]; 21 hours post administration)?
A: 0.33 U/ml

Q: And the Epo level ([1]; 42 hours post administration)?
A: 0.041 U/ml

Q: What about the Epo level ([1]; 63 hours post administration) of the same compound?
A: 0.0052 U/ml

Q: What about the Epo level ([1]; 84 hours post administration) of the same compound?
A: 0.00065 U/ml

Q: And the half-life in plasma ([2]; after a subcutaneous injection)?
A: 11.2 to 21.1 h

Q: What about the half-life in plasma ([2]; after an intravenous injection) of the same compound?
A: 5.6 to 8.8 h

Q: What about the “fraction of subcutaneous dose absorbed into the bloodstream” value ([2]; subcutaneous) of the same compound?
A: 21.5-46.6%

Q: With `CC(=O)CC(=O)CCC(=O)O` [SA, Succinylacetone] as the compound, how does the “relative erythroid progenitor number (BFU-E+CFU-E) vs untreated plates” value [3] read?
A: 0.31

Q: And the “effect of SA on CFU-GM proliferation” value (CFU-GM; 0.5 mM SA)?
A: did not inhibit CFU-GM proliferation

Q: For `Nc1nc(O)c2ncn(COC(CO)CO)c2n1` [ganciclovir], which “effect on CFU-E at 1 μM ganciclovir” value (CFU-E; 1 μM ganciclovir) is on record?
A: unaffected

Q: What about the “inhibition of CFU-E by ganciclovir” value (CFU-E; 0.1-100 μM ganciclovir) of the same compound?
A: dose-dependent inhibition

Q: And the “inhibition of BFU-E by ganciclovir” value (BFU-E)?
A: dose-dependent inhibition

Q: What about the “dose at which CFU-GM are completely inhibited” value (CFU-GM; human, 14 days) of the same compound?
A: greater than 10 μM
